Where “and” joins values, the source holds several entries; their conditions need not be identical. Equal values may be shown once.
T1: human CSPα L115R, purified from E. coli (human), Q9H3Z4
T1 chain: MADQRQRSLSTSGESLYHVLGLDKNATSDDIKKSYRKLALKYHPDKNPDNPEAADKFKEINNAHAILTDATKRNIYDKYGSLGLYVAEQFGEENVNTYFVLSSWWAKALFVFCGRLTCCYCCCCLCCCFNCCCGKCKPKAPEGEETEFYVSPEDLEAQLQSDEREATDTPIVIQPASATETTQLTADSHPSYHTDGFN

B1: human CSPα L115R, purified from E. coli, Q9H3Z4 1-198 (natural protein)
chain: T1 chain
B2: human CSPα L115R, purified from E. coli (protein)
chain: T1 chain
B3: human CSPα L116Δ, purified from E. coli (protein)
chain: MADQRQRSLSTSGESLYHVLGLDKNATSDDIKKSYRKLALKYHPDKNPDNPEAADKFKEINNAHAILTDATKRNIYDKYGSLGLYVAEQFGEENVNTYFVLSSWWAKALFVFCGLTCCYCCCCLCCCFNCCCGKCKPKAPEGEETEFYVSPEDLEAQLQSDEREATDTPIVIQPASATETTQLTADSHPSYHTDGFN

What was measured:
[1] = biological target: T1, human CSPα L115R, purified from E. coli …; assay: SDS-PAGE of SDS-resistant oligomers; conditions: remark: other sources report otherwise
Q9H3Z4 = assay: SDS-PAGE of SDS-resistant oligomers; conditions: other: SDS-PAGE of SDS-resistant oligomers

| Binder | stoichiometry N [1] | HMW oligomers, fold versus WT (Q9H3Z4) [fold versus WT] |
| --- | --- | --- |
| B1 | 2 and 4 |  |
| B2 |  | 58.9 ± 5.9 |
| B3 |  | 13.2 ± 3.9 |

Source: paper PMC4188699
